# From patent publication US20260097113A1 (Pfizer, published 2026)
# T1: RSV F protein of subtype A comprising a polypeptide of SEQ ID NO: 1 and a polypeptide of SEQ ID NO: 2 (RSV subtype A, UniProt P11209 137-513; P03420 26-109)
# T1 construct: Stabilized prefusion F trimer made of three F2-F1 heterodimers; Produced recombinantly in CHO cells; also called RSV A; RSVA
# T1 chain 1: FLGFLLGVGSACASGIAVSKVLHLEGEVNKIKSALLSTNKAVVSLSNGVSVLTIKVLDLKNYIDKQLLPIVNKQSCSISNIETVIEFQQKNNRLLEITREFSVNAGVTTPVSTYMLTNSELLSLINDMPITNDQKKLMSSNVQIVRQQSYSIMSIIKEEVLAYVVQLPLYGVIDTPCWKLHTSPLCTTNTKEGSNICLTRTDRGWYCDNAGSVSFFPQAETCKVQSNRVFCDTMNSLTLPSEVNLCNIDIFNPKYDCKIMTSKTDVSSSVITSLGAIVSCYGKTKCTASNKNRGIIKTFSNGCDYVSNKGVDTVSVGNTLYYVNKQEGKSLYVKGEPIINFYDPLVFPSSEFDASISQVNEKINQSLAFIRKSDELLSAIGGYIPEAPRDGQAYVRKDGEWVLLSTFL
# T1 chain 2: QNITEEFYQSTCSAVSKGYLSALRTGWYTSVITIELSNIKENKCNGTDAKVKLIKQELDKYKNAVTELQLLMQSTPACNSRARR
# T2: RSV F protein comprising a polypeptide of SEQ ID NO: 3 and a polypeptide of SEQ ID NO: 4 (RSV subtype B, UniProt O36634 137-513; O36634 26-109)
# T2 construct: also called RSV B; RSVB
# T2 chain 1: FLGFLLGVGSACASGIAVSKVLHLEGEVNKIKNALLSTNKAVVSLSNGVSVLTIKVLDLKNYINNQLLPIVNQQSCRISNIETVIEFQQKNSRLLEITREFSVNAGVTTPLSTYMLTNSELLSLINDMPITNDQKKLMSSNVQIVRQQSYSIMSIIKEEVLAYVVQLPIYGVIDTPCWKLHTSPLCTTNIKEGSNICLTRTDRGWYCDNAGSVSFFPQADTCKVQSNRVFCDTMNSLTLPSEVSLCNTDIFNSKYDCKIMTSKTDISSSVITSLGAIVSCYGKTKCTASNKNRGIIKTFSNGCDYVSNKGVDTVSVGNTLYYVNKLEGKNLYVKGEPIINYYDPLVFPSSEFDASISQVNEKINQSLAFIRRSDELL
# T2 chain 2: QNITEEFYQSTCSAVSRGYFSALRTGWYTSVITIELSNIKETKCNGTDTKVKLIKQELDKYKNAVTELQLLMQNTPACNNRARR
# Experiments:
# [1] = target: RSV A + RSV B bivalent composition (RSV subtype A; RSV subtype B); assay: AM14 Fab titration by SEC; High-Slow 1 cycle; 1 M 2-8°C
# [2] = target: RSV A + RSV B bivalent composition (RSV subtype A; RSV subtype B); assay: AM14 Fab titration by SEC; Target cycle; 3 M 2-8°C (second value)
# [3] = target: RSV A + RSV B bivalent composition (RSV subtype A; RSV subtype B); assay: AM14 Fab titration by SEC; composition of Table 14; Annealing Ramp Aggressive cycle
# [4] = target: RSV A + RSV B bivalent composition (RSV subtype A; RSV subtype B); assay: AM14 Fab titration by SEC; Target cycle; 8 M 25°C
# [5] = target: RSV A + RSV B bivalent composition (RSV subtype A; RSV subtype B); assay: AM14 Fab titration by SEC; Low-Fast cycle; 3 M 2-8°C (second value)
# [6] = target: RSV A + RSV B bivalent composition (RSV subtype A; RSV subtype B); assay: AM14 Fab titration by SEC; Low-Fast cycle; 3 M 25°C (second value)
# [7] = target: T1, RSV F protein of subtype A comprising a …; assay: AM14 ELISA; F1 (pH 8, 100 mM NaCl, 0% sucrose); 1 wk 5°C
# [8] = target: T1, RSV F protein of subtype A comprising a …; assay: AM14 ELISA; F3 (pH 8, 0 mM NaCl, 9% sucrose); 1 wk 25°C
# [9] = target: T1, RSV F protein of subtype A comprising a …; assay: AM14 ELISA; F19 (pH 7, 50 mM NaCl, 3% trehalose + 3% mannitol); 2 wk 25°C
# [10] = target: T2, RSV F protein comprising a polypeptide …; assay: AM14 prefusion assay relative to standard; RSV B 480 µg/mL, 2% sucrose + 4% mannitol; pre-lyo
# [11] = target: T1, RSV F protein of subtype A comprising a …; assay: AM14 ELISA; F13 (pH 7, 100 mM NaCl, 4.5% sucrose); 2 wk 5°C
# [12] = target: T1, RSV F protein of subtype A comprising a …; assay: AM14 ELISA; F11 (pH 7, 50 mM NaCl, 9.0% sucrose); 2 wk 5°C
# [13] = target: T1, RSV F protein of subtype A comprising a …; assay: AM14 ELISA; F14 (pH 7, 50 mM NaCl, 4.5% sucrose); 1 wk 5°C
# [14] = target: T1, RSV F protein of subtype A comprising a …; assay: AM14 ELISA; F5 (pH 6, 100 mM NaCl, 9.0% sucrose); 2 wk 25°C
Molecule,Prefusion Content (%) [1] [%],Prefusion Content (%) [2] [%],Prefusion Content (%) [3] [%],Prefusion Content (%) [4] [%],Prefusion Content (%) [5] [%],Prefusion Content (%) [6] [%],"AM14 prefusion content (%), relative to standard [7] [%]","AM14 prefusion content (%), relative to standard [8] [%]","AM14 prefusion content (%), relative to standard [9] [%]","AM14 prefusion content (%), relative to standard [10] [%]","AM14 prefusion content (%), relative to standard [11] [%]","AM14 prefusion content (%), relative to standard [12] [%]","AM14 prefusion content (%), relative to standard [13] [%]","AM14 prefusion content (%), relative to standard [14] [%]"
AM14 Fab,52,70,81,75,59,68,–,–,–,–,–,–,–,–
"AM14 (trimeric prefusion specific antibody of the AM14 ELISA) (antibody, V domains shown, Antibody as used in the AM14 ELISA, detected with an HRP-labeled secondary antibody) VH: EVQLVESGGGVVQPGRSLRLSCAASGFSFSHYAMHWVRQAPGKGLEWVAVISYDGENTYYADSVKGRFSISRDNSKNTVSLQMNSLRPEDTALYYCARDRIVDDYYYYGMDVWGQGATVTVSS VL: DIQMTQSPSSLSASVGDRVTITCQASQDIKKYLNWYHQKPGKVPELLMHDASNLETGVPSRFSGRGSGTDFTLTISSLQPEDIGTYYCQQYDNLPPLTFGGGTKVEIKR",–,–,–,–,–,–,96,81,84,90,75,90,85,98
